Reference: article PMC6628828

What was measured:
[1] = target: glutathione transferase P1-1 C47S mutant (human); assay: ESI-MS
[2] = target: glutathione transferase P1-1 C47S mutant (human); assay: cross-linking
[3] = target: glutathione transferase P1-1 C101S mutant (human); assay: ESI-MS
[4] = target: glutathione transferase P1-1 C101S mutant (human); assay: cross-linking

| relative abundance of peak C (C47S dimer) [1] [%] | relative abundance of peak E (C47S dimer + 2×[Pt(NH3)]) [2] [%] | relative abundance of peak F (C47S dimer + 2×[PtCl2] + [Pt(NH3)2]) [2] [%] | relative abundance of peak C (C101S dimer) [3] [%] | relative abundance of peak L (C101S dimer + 2×MeOH) [4] [%] | Substance |
| --- | --- | --- | --- | --- | --- |
| 5 | 54 | 24 |  |  | glutathione transferase P1-1 C47S mutant (enzyme) |
|  |  |  | 5 | 18 | glutathione transferase P1-1 C101S mutant (enzyme) |
